Consider one substance from patent US20240010680A1, “PEPTIDE DISINFECTANT FOR PREVENTING CORONAVIRUSES” (Xiamen University, priority 2021, published 2024).

The assay concerns the target hACE2-His purified protein (human (printed as hACE2)) (UniProt Q9BYF1).

Chain of hACE2-His purified protein (human (printed as hACE2)) (Q9BYF1 18-740 limits assumed): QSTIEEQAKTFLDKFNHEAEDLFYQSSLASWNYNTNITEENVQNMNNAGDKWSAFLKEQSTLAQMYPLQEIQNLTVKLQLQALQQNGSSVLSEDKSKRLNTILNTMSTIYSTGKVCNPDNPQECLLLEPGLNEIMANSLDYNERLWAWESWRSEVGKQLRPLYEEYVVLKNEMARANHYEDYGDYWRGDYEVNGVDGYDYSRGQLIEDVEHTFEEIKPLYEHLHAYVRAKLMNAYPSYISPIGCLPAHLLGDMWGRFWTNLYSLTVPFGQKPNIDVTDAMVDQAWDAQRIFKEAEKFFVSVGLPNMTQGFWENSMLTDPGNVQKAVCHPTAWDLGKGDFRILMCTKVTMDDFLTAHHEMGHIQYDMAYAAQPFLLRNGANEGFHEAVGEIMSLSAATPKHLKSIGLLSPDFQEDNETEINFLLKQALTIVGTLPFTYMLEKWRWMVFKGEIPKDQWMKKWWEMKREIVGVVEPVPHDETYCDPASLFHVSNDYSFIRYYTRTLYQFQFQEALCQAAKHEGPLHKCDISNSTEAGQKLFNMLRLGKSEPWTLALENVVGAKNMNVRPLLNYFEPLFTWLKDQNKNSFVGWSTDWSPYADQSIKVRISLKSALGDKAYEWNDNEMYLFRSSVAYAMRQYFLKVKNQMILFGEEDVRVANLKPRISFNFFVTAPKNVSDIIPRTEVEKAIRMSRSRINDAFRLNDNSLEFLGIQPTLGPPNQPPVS

As for S1-HA purified protein (ligand), the Relative brightness value was determined as 100%.
